Data on 4 molecules can be found in patent CN109666072A (ZONHON BIOPHARMA INST INC, dated 2019).

Assay [1] concerns the target T1, 重组人β2-微球蛋白 (recombinant human β2-microglobulin, expressed in E. coli) (human, UniProt P61769 21-119).
T1 construct: The same in-house recombinant protein serves as immunogen, ELISA coat and Western blot sample; also called β2-MG; 人β2-MG
Nature of the assay: Western blot, HRP-labelled scFv on recombinant β2-MG. A general note: A western blot detects proteins with antibodies after separation by electrophoresis.

Assay [2] deals with T1, 重组人β2-微球蛋白 (recombinant human …). Nature of the assay: indirect ELISA, hybridoma supernatant on coated recombinant human β2-MG (1 μg/mL), HRP goat anti-mouse IgG.

T1 sequence (P61769 21-119 limits assumed): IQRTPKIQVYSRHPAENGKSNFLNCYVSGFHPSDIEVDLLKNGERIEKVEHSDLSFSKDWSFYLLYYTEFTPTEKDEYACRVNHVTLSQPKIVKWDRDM

B1: 单链抗体BM17 (anti-human β2-microglobulin scFv BM17) (scFv)
scFv: QVTLKESGPGILQPSQTLSLTCSFSGFSLSTSGMGVSWIRQPSGKGLEWLAHIYWDDDKRYNPSLKSRLTISKDTSSNQVFLKITSVDTADTATYYCARVYYGYDGGFFDYWGQGTTLTVSSGGGGSGGGGSGGGGSQIVLTQSPAIMSASPGEKVTITCSASSSVSYMHWFQQKPGTSPKLWIYSTSNLASGVPARFSGSGSGTSYSLTISRMEAEDAATYYCHQRSSYPLTFGAGTKLEIK
notes: expressed in Pichia pastoris X-33; HRP-labelled in the Western blot; used as gold-labelled or coating antibody in the colloidal gold card; also called BM17-HRP; BM17-scFv
Turning to B1, the binding result in assay [1] is “binds”.

B2: 杂交瘤细胞株B12所表达抗体 (antibody expressed by hybridoma cell line B12) (antibody, V domains shown)
VH: DVKLVESGGGLVKPGGSLKLSCAASGFTFGSYTMSWVRQTPEKRLEWVAAISSGGSFTYYLDSVKGRFTISRDSAKTTLYLQMGSLKSEDTAMYYCSREGGPYYGSHYYALDYWGQGTSVTVSS
VL: DIQMTQSTSSLSASLGDGVTISCRASQDITNYLNWYQQRPDGAVRLLIYYTSRLHSGVPSRFSGSGSGTNYSLTISNLEQEDIATYFCQQGNTLPPTFGGGTKLEIK
notes: Mouse monoclonal antibody tested as hybridoma culture supernatant and detected with HRP goat anti-mouse IgG
Consider B2, for which the binding result in assay [2] is given as “binds”.

B3: 杂交瘤细胞株B17所表达抗体 (antibody expressed by hybridoma cell line B17) (antibody, V domains shown)
VH: not shown
VL: QIVLTQSPAIMSASPGEKVTITCSASSSVSYMHWFQQKPGTSPKLWIYSTSNLASGVPARFSGSGSGTSYSLTISRMEAEDAATYYCHQRSSYPLTFGAGTKLEIK
notes: as for B2
Regarding B3, the binding result in assay [2] is recorded as “binds”.

B4: 单链抗体BM12 (anti-human β2-microglobulin scFv BM12) (scFv)
scFv: DVKLVESGGGLVKPGGSLKLSCAASGFTFGSYTMSWVRQTPEKRLEWVAAISSGGSFTYYLDSVKGRFTISRDSAKTTLYLQMGSLKSEDTAMYYCSREGGPYYGSHYYALDYWGQGTSVTVSSGGGGSGGGGSGGGGSDIQMTQSTSSLSASLGDGVTISCRASQDITNYLNWYQQRPDGAVRLLIYYTSRLHSGVPSRFSGSGSGTNYSLTISNLEQEDIATYFCQQGNTLPPTFGGGTKLEIK
notes: expressed in Pichia pastoris X-33; HRP-labelled in the Western blot; used as coating or gold-labelled antibody in the colloidal gold card; also called BM12-HRP; BM12-scFv
For B4, in assay [1], the binding result is listed as “binds”.
